{
  "source": "patent US20030207446A1",
  "about": "(US Dept. of Health and Human Services, published 2003)",
  "binders": {"B1": {"name": "bovine papillomavirus type 1 (BPV1) L2 minor capsid protein (other)", "chain": "MSARKRVKRASAYDLYRTCKQAGTCPPDVIPKVEGDTIADKILKFGGLAIYLGGLGIGTWSTGRVAAGGSPRYTPLRTAGSTSSLASIGSRAVTAGTRPSIGAGIPLDTLETLGALRPGVYEDTVLPEAPAIVTPDAVPADSGLDALSIGTDSSTETLITLLEPEGPEDIAVLELQPLDRPTWQVSNAVHQSSAYHAPLQLQSSIAETSGLENIFVGGSGLGDTGGENIELTYFGSPRTSTPRSIASKSRGILNWFSKRYYTQVPTEDPEVFSSQTFANPLYEAEPAVLKGPSGRVGLSQVYKPDTLTTRSGTEVGPQLHVRYSLSTIHEDVEAIPYTVDENTQGLAFVPLHEEQAGFEEIELDDFSETHRLLPQNTSSTPVGSGVRRSLIPTQEFSATRPTGVVTYGSPDTYSASPVTDPDSTSPSLVIDDTTTTPIIIIDGHTVDLYSSNYTLHPSLLRKRKKRKHA", "notes": "mature; Expressed from recombinant Semliki Forest virus in BHK-21 or BPHE-1 cells; also called BPV L2"}, "B2": {"name": "BPV E2 protein (full-length 48 kD form) (other)", "chain": "METACERLHVAQETQMQLIEKSSDKLQDHILYWTAVRTENTLLYAARKKGVTVLGHCRVPHSVVCQERAKQAIEMQLSLQELSKTEFGDEPWSLLDTSWDRYMSEPKRCFKKGARVVEVEFDGNASNTNWYTVYSNLYMRTEDGWQLAKAGADGTGLYYCTMAGAGRIYYSRFGDEAARFSTTGHYSVRDQDRVYAGVSSTSSDFRDRPDGVWVASEGPEGDPAGKEAEPAQPVSSLLGSPACGPIRAGLGWVRDGPRSHPYNFPAGSGGSILRSSSTPVQGTVPVDLASRQEEEEQSPDSTEEEPVTLPRRTTNDGFHLLKAGGSCFALISGTANQVKCYRFRVKKNHRHRYENCTTTWFTVADNGAERQGQAQILITFGSPSQRQDFLKHVPLPPGMNISGFTASLDF", "notes": "mature; BPHE-1 cells express three forms of E2; SFV-E2 gives only the 48 kD form"}},
  "key": {"[1]": {"target": "T1, bovine papillomavirus type 1 (BPV1) L1 major capsid protein (bovine papillomavirus type 1 (BPV1), UniProt P03103 1-495)", "T1 construct": "mature; Expressed from recombinant Semliki Forest virus in BHK-21 or BPHE-1 cells; self-assembles into VLPs; also called BPV L1", "experiment": "co-expression from recombinant SFV in BHK-21 cells; heading of the section"}, "[2]": {"target": "B1", "experiment": "coimmunoprecipitation; cosedimentation in sucrose gradients"}},
  "data": [
    {"binder": "B1", "values": [
      {"measurement": "binding result", "setting": "[1]", "result": "binds"}
    ]},
    {"binder": "B2", "values": [
      {"measurement": "binding result", "setting": "[2]", "result": "no binding"}
    ]}
  ]
}
